Measurements reported in patent US20210079423.

Assays:
[1] = system: PR405: SP(HSA)-PTEN-L-MMP2/9-HSA-6xHis (secreted form)
[2] = system: PR408: SP(HSA)-PTEN-L-cathepsinB**-HSA-6xHis (secreted form)
[3] = system: PR407: SP(HSA)-PTEN-L-cathepsin B*-HSA-6xHis (secreted form)
[4] = system: PR402: SP(HSA)-PTEN-L-HSA-6xHis (secreted, mature form)
[5] = system: PR406: SP(HSA)-PTEN-L-cathepsin B-HSA-6xHis (secreted form)

Chain of recombinant active MMP2 protease (Enzo cat. #BML-SE237-0010) (chain, as listed by the source): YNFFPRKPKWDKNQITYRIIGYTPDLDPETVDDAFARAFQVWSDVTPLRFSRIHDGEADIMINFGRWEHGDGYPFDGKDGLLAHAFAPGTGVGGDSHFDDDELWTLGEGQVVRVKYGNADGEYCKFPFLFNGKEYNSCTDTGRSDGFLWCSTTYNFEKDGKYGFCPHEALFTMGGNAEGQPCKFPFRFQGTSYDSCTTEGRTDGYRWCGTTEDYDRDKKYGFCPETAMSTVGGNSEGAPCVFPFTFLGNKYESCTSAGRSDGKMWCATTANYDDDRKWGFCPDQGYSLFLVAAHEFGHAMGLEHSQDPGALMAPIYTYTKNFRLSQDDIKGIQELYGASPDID

| Substance | in vitro cleavage of the fusion [1] | pH dependence of in vitro cleavage (pH 5.0 against pH 7.0 buffer) [2] | pH dependence of in vitro cleavage (pH 5.0 against pH 7.0 buffer) [3] | in vitro cleavage of the fusion (F-1 anti-PTEN western blot of digests at t=0, 4 h, 21 h) [4] | in vitro cleavage of the fusion [5] | in vitro cleavage of the fusion, release of a PTEN-L-like fragment (~70 KDa) [1] | in vitro cleavage of the fusion [2] | in vitro cleavage of the fusion [3] |
| --- | --- | --- | --- | --- | --- | --- | --- | --- |
| active CATSB (Cathepsin B; BioVision #7580-5) | PR405 (SEQ ID NO:129; cDNA SEQ ID NO:157) was not cleaved by CATSB | CATSB only cleaves PR407 and PR408 at a low pH (FIG. 15) | CATSB only cleaves PR407 and PR408 at a low pH (FIG. 15) | PR402 was not appreciably cleaved by either recombinant MMP2 or CATSB | though it did not cleave PR406 (SEQ ID NO:130; cDNA SEQ ID NO:158) |  |  |  |
| recombinant active MMP2 protease (Enzo cat. #BML-SE237-0010) |  |  |  | PR402 was not appreciably cleaved by either recombinant MMP2 or CATSB | MMP2 did however cleave its consensus site (SEQ ID NO:165) on PR405 only | MMP2 did however cleave its consensus site (SEQ ID NO:165) on PR405 only; this cleavage released a PTEN-L-like fragment (~70 KDa) | MMP2 did however cleave its consensus site (SEQ ID NO:165) on PR405 only | MMP2 did however cleave its consensus site (SEQ ID NO:165) on PR405 only |
